Test results reported in patent publication US20260042834A1 (HBM ALPHA THERAPEUTICS, published 2026).
Where a chain is given by its changes, count along the chain named. “And” between values parts separate entries of the source, which are not always exact repeats. Identical values can stand only once. Like-named read-outs stand apart in the source and are kept apart here.

T1: corticotropin-releasing hormone (CRH) peptide (human and mouse (same sequence), not fully specified)
T1 peptide: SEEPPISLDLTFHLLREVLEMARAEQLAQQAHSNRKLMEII

T2: CRH (NT-Biotin) (human and mouse (same sequence), not fully specified; biotin at the N-terminus)
T2 peptide: T1 peptide

T3: CRH (CT-Biotin) (human and mouse (same sequence), biotin on an added C-terminal K (CRH-K-Biotin))
T3 construct: also called Peptide 4 (CRH-Biotin)
T3 peptide: T1 peptide

T4: human UCN2 peptide (human, UniProt Q96RP3 72-109, limits assumed, not fully specified; biotin at N- or C-terminus in the ELISA)
T4 construct: also called hUCN2; hUCN2 (NT Biotin)
T4 peptide (looked up): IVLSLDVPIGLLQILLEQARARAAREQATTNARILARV

T5: human UCN3 peptide (human, UniProt Q969E3 120-157, not fully specified; biotin at N- or C-terminus in the ELISA)
T5 construct: also called hUCN3; hUCN3 (NT Biotin)
T5 peptide (looked up): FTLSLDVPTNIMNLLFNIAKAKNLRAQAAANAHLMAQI

T6: corticotropin-releasing hormone (CRH) peptide (human and mouse, not fully specified)
T6 peptide: T1 peptide

T7: human UCN1 peptide (human, UniProt P55089 83-122)
T7 peptide (looked up): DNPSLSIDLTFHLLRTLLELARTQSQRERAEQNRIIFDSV

T8: biotinylated CRH (human and mouse, not fully specified; biotinylated, position not stated)
T8 construct: also called Biotin-CRH; biotin-labeled CRH
T8 peptide: T1 peptide

T9: CRH (NT Biotin) (human and mouse, not fully specified; biotin at the N-terminus)
T9 peptide: T1 peptide

T10: CRH (CT Biotin) (human and mouse, C-terminal K-Biotin)
T10 construct: also called Peptide 4 (CRH-Biotin)
T10 peptide: T1 peptide

B1: PR005656 (antibody, human IgG1, kappa, V domains shown)
VH: EVQLVESGGVLVQPGGSLRLSCAASGFTFSSYWMTWVRQAPGKGLEWVANIKQEGSEKYYVDSVKGRFTISRDNAKNSLFLQMNSLRAEDTAVYYCARTLIFDYWGQGTLVTVSS
VL: DIVMTQSPLSLPVTPGEPASISCRSSQSLLHSTGYNSLEWYLQKPGQSPQLLIYLGSNRASGVPDRFSGSGSGTDFTLKISRVEAEDVGIYYCMQTLQTPITFGQGTRLEIKR
notes: PTM-removal variant of PR004290
B2: PR005658 (antibody, human IgG1, kappa, V domains shown)
VH: B1 VH with E54D
VL: B1 VL with N36Q
notes: as for B1
B3: PR005660 (antibody, human IgG1, kappa, V domains shown)
VH: B1 VH
VL: B1 VL with N36Q
notes: as for B1
B4: PR005662 (antibody, human IgG1, kappa, V domains shown)
VH: B1 VH with E54D, G55A
VL: B1 VL with N36Q
notes: as for B1
B5: PR006142 (antibody, human IgG1, kappa, V domains shown)
VH: B1 VH
VL: B1 VL with N36D
notes: as for B1
B6: PR006144 (antibody, human IgG1, kappa, V domains shown)
VH: B1 VH
VL: B1 VL with S37P
notes: as for B1
B7: PR006146 (antibody, human IgG1, kappa, V domains shown)
VH: B1 VH with E54D, G55A
VL: B1 VL with N36D
notes: as for B1
B8: PR006147 (antibody, human IgG1, kappa, V domains shown)
VH: B1 VH with E54D, G55A
VL: B1 VL with N36H
notes: as for B1
B9: PR006148 (antibody, human IgG1, kappa, V domains shown)
VH: B1 VH with E54D, G55A
VL: B1 VL with S37P
notes: as for B1
B10: PR006149 (antibody, human IgG1, kappa, V domains shown)
VH: B1 VH with E54D, G55A
VL: B1 VL with N36S
notes: as for B1
B11: PR006150 (antibody, human IgG1, kappa, V domains shown)
VH: B1 VH with E54D, G55S
VL: B1 VL with N36D
notes: as for B1
B12: PR006151 (antibody, human IgG1, kappa, V domains shown)
VH: B1 VH with E54D, G55S
VL: B1 VL with N36H
notes: as for B1
B13: PR006152 (antibody, human IgG1, kappa, V domains shown)
VH: B1 VH with E54D, G55S
VL: B1 VL with S37P
notes: as for B1
B14: PR006153 (antibody, human IgG1, kappa, V domains shown)
VH: B1 VH with E54D, G55S
VL: B1 VL with N36S
notes: as for B1
B15: PR302064 (antibody, human IgG1, kappa, V domains shown)
VH: EMQLVESGGGLVKPGGSLRLSCAASGFTFSNYWMNWVRQAPGKGLEWVAEIRLKSNNYATHYAESVKGRFTISRDDSKSTVYLQMNSLKTEDTAVYYCTVGTLVYWGQGTLVTVSS
VL: DIVLTQSPDSLAVSLGERATINCRASQSVSTSTYNYMHWFQQKPGQPPKLLIKFASNLESGVPDRFSGSGSGTDFTLTISSLQAEDTAVYYCQHSWEIPYTFGQGTKLEIKR
notes: humanized variant of PR301777
B16: PR302069 (antibody, human IgG1, kappa, V domains shown)
VH: B15 VH
VL: DIQLTQSPSSLSASVGDRVTITCRASQSVSTSTYNYMHWFQQKPGKAPKLLIKFASNLESGVPSRFSGSGSGTDFTLTISSLQPEDTATYYCQHSWEIPYTFGQGTKLEIKR
notes: humanized variant of PR301777
B17: PR302341-34 (antibody, human IgG1, kappa, V domains shown)
VH: QVQLVQSGAEVKKPGASVKVSCKASGYTFTDYFMKWVRQAPGQGLEWMGVINPNQGDIFYNQKFKGRVTMTVDKSISTAYMELSRLRSDDTAVYYCARGTDRALFAYWGQGTLVTVSS
VL: DVVMTQSPLSLPVTLGQPASISCRSGQSIVHSDANTYLEWYQQRPGQSPRLLIYKVSNRFSGVPDRFSGSGSGTDFTLKISRVEAEDLGVYYCFQGSHIPWTFGGGTKVEIKR
notes: Humanized, PTM-removed variant of PR302341
B18: PR302341 (antibody, human IgG1, kappa, V domains shown)
VH: EVQLQQSGPELVKPGASVKMSCKASGYTFTDYFMKWVKQSHGESLEWIGVINPNNGDIFYNQKFKGKATLTVDKSSSTAFMQLNSLTSEDSAVYSCARGTDRALFAYWGQGTLVAVSA
VL: DVLMTQTPLSLPVSLGDQASISCRSGQSIVHSDGNTYLEWYLQRPGQSPRLLIYKVSNRFSGVPDRFSGSGSGTDFTLKISRVGAEDLGIYYCFQGSHIPWTFGGGTKLEVKR
notes: Series 10; mouse variable domains with human IgG1 wildtype Fc

Experiments:
[1] = biological target: T1, corticotropin-releasing hormone (CRH) …; assay: cell-based or functional assay
CRH (NT-Biotin) [2] = biological target: T2, CRH (NT-Biotin); assay: ELISA, biotinylated CRH on streptavidin plate
Protocol: (§1) Streptavidin (Thermo, Cat: 21125) was diluted in PBS to a concentration of 2 μg/ml. 100 μl of diluted streptavidin was added per well to ELISA microplates, and the plates were incubated overnight at 4° C. […] 100 μL of 3,3′,5,5′-tetramethylbenzidine (TMB) substrate (Biopanda, Cat: TMB-S-003) was added, and the plates were incubated at room temperature for 15 minutes. 100 μL of ELISA stopping solution (Solarbio, Cat #: C1058) was added to terminate the reaction, and the optical density at 450 nm (OD450 nm) was determined by an ELISA plate reader (Molecular Devices, Spectra max 384 plus).

CRH (CT-Biotin) [3] = biological target: T3, CRH (CT-Biotin); assay: ELISA, biotinylated CRH on streptavidin plate
Protocol: as §1

[4] = biological target: T1, corticotropin-releasing hormone (CRH) …; assay: cell-based or functional assay
[5] = biological target: T1, corticotropin-releasing hormone (CRH) …; assay: cell-based or functional assay
CRH (NT-Biotin) [6] = biological target: T2, CRH (NT-Biotin); assay: ELISA, biotinylated CRH on streptavidin plate
Protocol: as §1

CRH (CT-Biotin) [7] = biological target: T3, CRH (CT-Biotin); assay: ELISA, biotinylated CRH on streptavidin plate
Protocol: as §1

human UCN2 peptide = biological target: T4, human UCN2 peptide; assay: ELISA, biotinylated hUCN2 on streptavidin plates
Protocol: (§2) Streptavidin (Thermo, Cat: 21125) was diluted in PBS with a concentration of 2 μg/mL. 100 μL of diluted streptavidin was added per well to ELISA microplates, and the plates were incubated overnight at 4° C. Plates were blocked with ELISA blocking solution (containing 2% w/v BSA, 0.05% (v/v) Tween-20, pH 7.4 PBS buffer) at 37° C. for 1 hour, and then incubated with either 1 μg/mL hUCN1 (NT Biotin), hUCN1 (CT Biotin), hUCN2 (NT Biotin), hUCN2 (CT Biotin), hUCN3 (NT Biotin), or hUCN3 (CT Biotin) for 1 hour at 37° C. […] 100 μl of TMB Substrate (Biopanda, Cat: TMB-S-003) was added, and the plates were incubated at room temperature for 15 minutes. 100 μL of ELISA stopping solution (Solarbio, Cat #: C1058) was then added to terminate the reaction, and the OD450 nm was determined by an ELISA plate reader (Molecular Devices, Spectra max 384 plus).

human UCN3 peptide = biological target: T5, human UCN3 peptide; assay: ELISA, biotinylated hUCN3 on streptavidin plates
Protocol: as §2

[8] = biological target: T6, corticotropin-releasing hormone (CRH) …; assay: cell-based or functional assay
human UCN1 peptide = biological target: T7, human UCN1 peptide; assay: cell-based or functional assay
biotinylated CRH = biological target: T8, biotinylated CRH; assay: Octet BLI, biotinylated CRH on SA sensor
Protocol: Octet® Red 96e was used for affinity measurement. Octet® running buffer was prepared by diluting kinetics buffer 10× (Fortebio, Cat #18-1105) in PBS according to the manufacturer's instructions. Two columns of SA sensors (Fortebio, Cat #18-5019) were hydrated in running buffer for 10 mins, one for ligand capturing and the other for reference. Antibodies were 2-fold diluted and added into a 96-well plate. […] After a 60-second baseline step, sensors were dipped into analyte and buffer wells successively, with the association and dissociation time of 180 seconds and 800 seconds, respectively. […] Signals of reference wells and reference sensors were subtracted by selecting “Double reference” before data fitting.

CRH (NT Biotin) = biological target: T9, CRH (NT Biotin); assay: ELISA, biotin peptide on streptavidin plate
Protocol: as §1

CRH (CT Biotin) = biological target: T10, CRH (CT Biotin); assay: ELISA, biotin peptide on streptavidin plate
Protocol: as §1

Binder | hCRHR1 Luciferase Reporter Assay IC50 [1] [nM] | mCrhr1 Luciferase Reporter Assay IC50 [1] [nM] | EC50 (CRH (NT-Biotin) [2]) [nM] | EC50 (CRH (CT-Biotin) [3]) [nM] | other results
B1 | 1.74 | 4.26 | 0.026 | 0.033 | 
B2 | 16.2 | 29.7 | 0.026 | 0.044 | 
B3 | 10.3 | 29 | 0.033 | 0.051 | 
B4 | 15.8 | 42.4 | 0.023 | 0.052 | 
B5 | 4.4 |  | 0.048 | 0.046 | 
B6 | 1.2 | 3.6 | 0.033 | 0.032 | 
B7 | 4.89 | 18 | 0.025 | 0.024 | 
B8 | 12.1 | 39.9 | 0.023 | 0.027 | 
B9 | 2.5 | 4.87 | 0.035 | 0.03 | 
B10 | 8.04 | 40.1 | 0.019 | 0.027 | 
B11 | 5.88 | 18.3 | 0.013 | 0.016 | 
B12 | 13.6 | 57.6 | 0.03 | 0.023 | 
B13 | 2.19 | 4.4 | 0.028 | 0.023 | 
B14 | 12.4 | 39.5 | 0.019 | 0.019 | 
B15 |  |  |  |  | hCRHR1 Luciferase Reporter Assay IC50 [4]: 0.531 nM; mCrhr1 Luciferase Reporter Assay IC50 [4]: 2.39 nM; hCRHR1 Luciferase Reporter Assay IC50 [5]: 0.989 nM; mCrhr1 Luciferase Reporter Assay IC50 [5]: 4.92 nM; EC50 (CRH (NT-Biotin) [6]): 0.062 nM; EC50 (CRH (CT-Biotin) [7]): 0.022 nM
B16 |  |  |  |  | hCRHR1 Luciferase Reporter Assay IC50 [4]: 1.54 nM; mCrhr1 Luciferase Reporter Assay IC50 [4]: 4.4 nM; EC50 (CRH (NT-Biotin) [6]): 0.061 nM; EC50 (CRH (CT-Biotin) [7]): 0.016 nM
B17 |  |  |  |  | binding result (human UCN2 peptide): no binding (tested: 100 nM); binding result (human UCN3 peptide): no binding (tested: 100 nM)
B18 |  |  |  |  | CHO-CRE-hCRHR1 0.5 nM CRH IC50 [8]: 0.503 nM and 0.437 nM; CHO-CRE-hCRHR1 1 nM hUCH1 IC50 (human UCN1 peptide): 19 nM; hUCN1 IC50/ CRH IC50 (human UCN1 peptide): 40 fold; Kd (biotinylated CRH): < 0.001 nM; koff (biotinylated CRH): 2.18e-07 s⁻¹; kon (biotinylated CRH): 1.01e+06 M⁻¹ s⁻¹; EC50 (CRH (NT Biotin)): 0.023 nM; EC50 (CRH (CT Biotin)): 0.017 nM
